{"source": "patent US20030022261A1", "about": "(SALK INSTITUTE FOR BIOLOGICAL STUDIES, published 2003)", "binders": {"B1": {"name": "glycosylated cystatin C (CCg), 21 kDa protein purified from conditioned medium of adult rat hippocampus-derived neural progenitor cells (other, UniProt P14841 21-140, looked up)", "chain": "GTSRPPPRLLGAPQEADASEEGVQRALDFAVSEYNKGSNDAYHSRAIQVVRARKQLVAGINYYLDVEMGRTTCTKSQTNLTNCPFHDQPHLMRKALCSFQIYSVPWKGTHTLTKSSCKNA", "modifications": "N-linked carbohydrate moiety of approximately 2.4 kDa (about 15 hexose residues) at the N-glycosylation site (Asn79-X-Thr); carbohydrate moiety of 0.3 kDa at the O-glycosylation site (Ser3)", "notes": "mature; also called glycosylated form of cystatin C; stem cell glycocystatin C"}}, "target": "T1, papain (immobilised, papain affinity chromatography) (UniProt P00784 134-345)", "T1 sequence (looked up)": "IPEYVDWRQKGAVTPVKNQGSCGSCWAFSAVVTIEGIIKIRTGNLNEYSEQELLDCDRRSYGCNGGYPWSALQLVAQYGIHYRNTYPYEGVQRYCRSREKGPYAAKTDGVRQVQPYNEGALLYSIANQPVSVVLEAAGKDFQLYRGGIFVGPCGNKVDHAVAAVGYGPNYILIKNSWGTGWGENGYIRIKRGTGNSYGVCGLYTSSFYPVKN", "assay": "papain affinity chromatography (retention on immobilised papain during purification)"}
{"binder": "B1", "values": [{"measurement": "binding result", "result": "binds"}]}
